Reference: publication PMC3135484 (Molecular Biology of the Cell, 2011)

T1: Vps18 (individual HOPS subunit, TAP-purified) (yeast (S. cerevisiae), UniProt P27801 1-918)
T1 sequence: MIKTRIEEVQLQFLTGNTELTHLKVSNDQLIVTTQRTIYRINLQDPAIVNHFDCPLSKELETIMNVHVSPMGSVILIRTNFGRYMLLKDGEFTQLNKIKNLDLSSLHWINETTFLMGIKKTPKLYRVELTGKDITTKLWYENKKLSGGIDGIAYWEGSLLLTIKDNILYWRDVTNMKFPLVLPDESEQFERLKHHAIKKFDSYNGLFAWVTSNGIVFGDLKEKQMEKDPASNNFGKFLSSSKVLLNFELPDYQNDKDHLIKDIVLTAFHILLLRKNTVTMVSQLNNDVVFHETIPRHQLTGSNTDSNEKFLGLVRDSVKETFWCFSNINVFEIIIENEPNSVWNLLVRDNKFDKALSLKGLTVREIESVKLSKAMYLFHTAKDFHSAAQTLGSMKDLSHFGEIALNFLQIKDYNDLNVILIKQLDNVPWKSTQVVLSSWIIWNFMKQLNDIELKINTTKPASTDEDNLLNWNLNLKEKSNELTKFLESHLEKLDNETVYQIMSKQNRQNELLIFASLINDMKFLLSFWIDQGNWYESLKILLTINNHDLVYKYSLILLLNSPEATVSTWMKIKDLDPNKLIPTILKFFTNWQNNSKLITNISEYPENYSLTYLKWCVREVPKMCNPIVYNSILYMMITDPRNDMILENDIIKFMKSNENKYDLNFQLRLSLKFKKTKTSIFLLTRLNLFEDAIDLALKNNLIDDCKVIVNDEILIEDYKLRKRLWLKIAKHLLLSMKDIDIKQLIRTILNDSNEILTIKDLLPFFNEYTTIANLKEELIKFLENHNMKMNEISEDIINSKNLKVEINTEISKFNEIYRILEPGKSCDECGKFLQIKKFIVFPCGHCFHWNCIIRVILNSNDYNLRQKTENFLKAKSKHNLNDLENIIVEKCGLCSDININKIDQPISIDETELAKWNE

T2: Vps33 (individual HOPS subunit, Sec1/Munc18 protein, TAP-purified) (yeast (S. cerevisiae), UniProt P20795 1-691)
T2 sequence: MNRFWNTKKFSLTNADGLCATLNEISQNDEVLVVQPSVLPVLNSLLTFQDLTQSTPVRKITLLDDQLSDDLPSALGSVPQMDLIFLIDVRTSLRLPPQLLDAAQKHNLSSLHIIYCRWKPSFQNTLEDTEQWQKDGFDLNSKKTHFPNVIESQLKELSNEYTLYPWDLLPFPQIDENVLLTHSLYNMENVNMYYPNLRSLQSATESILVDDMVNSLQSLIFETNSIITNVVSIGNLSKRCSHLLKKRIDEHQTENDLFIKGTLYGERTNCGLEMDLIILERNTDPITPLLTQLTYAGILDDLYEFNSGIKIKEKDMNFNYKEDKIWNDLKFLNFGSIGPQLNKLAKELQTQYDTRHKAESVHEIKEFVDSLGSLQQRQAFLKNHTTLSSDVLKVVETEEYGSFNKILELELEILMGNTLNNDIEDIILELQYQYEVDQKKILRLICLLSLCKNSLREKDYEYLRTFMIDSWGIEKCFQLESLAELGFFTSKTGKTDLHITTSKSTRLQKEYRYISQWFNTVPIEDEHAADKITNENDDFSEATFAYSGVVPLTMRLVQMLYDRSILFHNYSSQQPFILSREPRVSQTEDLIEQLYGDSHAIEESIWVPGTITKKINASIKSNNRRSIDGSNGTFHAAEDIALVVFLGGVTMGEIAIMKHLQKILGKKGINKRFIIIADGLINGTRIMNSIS

T3: Vps16 (individual HOPS subunit, TAP-purified) (yeast (S. cerevisiae), UniProt Q03308 1-798)
T3 sequence: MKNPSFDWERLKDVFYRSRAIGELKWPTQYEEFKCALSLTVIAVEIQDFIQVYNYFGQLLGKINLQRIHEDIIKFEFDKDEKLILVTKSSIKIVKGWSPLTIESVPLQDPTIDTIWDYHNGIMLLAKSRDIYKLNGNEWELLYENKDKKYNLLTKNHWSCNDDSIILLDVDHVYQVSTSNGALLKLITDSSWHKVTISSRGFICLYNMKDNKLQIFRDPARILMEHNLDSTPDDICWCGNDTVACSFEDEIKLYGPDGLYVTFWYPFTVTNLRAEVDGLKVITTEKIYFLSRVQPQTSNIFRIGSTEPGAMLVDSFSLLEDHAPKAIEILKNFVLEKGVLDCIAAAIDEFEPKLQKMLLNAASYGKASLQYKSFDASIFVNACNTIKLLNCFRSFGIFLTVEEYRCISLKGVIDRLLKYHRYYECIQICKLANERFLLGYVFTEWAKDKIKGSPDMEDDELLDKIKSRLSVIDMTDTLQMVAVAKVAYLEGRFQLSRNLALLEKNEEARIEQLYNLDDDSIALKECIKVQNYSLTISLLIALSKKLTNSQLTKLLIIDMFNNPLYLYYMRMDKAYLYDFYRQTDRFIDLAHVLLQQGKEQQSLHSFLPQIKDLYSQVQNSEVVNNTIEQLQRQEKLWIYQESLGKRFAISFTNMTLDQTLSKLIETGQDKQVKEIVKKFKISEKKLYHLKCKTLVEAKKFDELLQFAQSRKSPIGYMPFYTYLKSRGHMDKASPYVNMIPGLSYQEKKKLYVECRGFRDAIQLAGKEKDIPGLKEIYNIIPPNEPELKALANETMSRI

T4: His-tagged Vam3 (1-264, ΔTMD) (S. cerevisiae, UniProt Q12241 1-264)
T4 sequence: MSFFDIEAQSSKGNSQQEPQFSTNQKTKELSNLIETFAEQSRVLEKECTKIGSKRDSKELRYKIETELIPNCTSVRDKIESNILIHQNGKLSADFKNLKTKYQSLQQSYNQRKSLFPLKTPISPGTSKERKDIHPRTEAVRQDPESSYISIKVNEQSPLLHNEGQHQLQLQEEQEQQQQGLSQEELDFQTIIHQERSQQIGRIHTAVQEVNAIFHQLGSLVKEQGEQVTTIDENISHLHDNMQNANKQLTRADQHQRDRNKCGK

T5: His-tagged Ykt6 (1-200) (S. cerevisiae, UniProt P36015 1-200)
T5 sequence: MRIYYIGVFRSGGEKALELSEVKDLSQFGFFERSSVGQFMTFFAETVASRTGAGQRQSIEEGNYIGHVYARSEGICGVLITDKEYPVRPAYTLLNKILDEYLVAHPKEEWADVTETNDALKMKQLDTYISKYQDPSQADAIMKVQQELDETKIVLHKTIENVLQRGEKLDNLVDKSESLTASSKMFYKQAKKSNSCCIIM

B1: minimal Q-SNARE complex (GST-Vam7 SD, Vam3ΔN and Vti1) (complex)
chain 1: PSTEVTRRAALLRSLLKECDDIGTANIAQDRGRLLGVATSDNSSTTEVQGRTNNDLQQGQMQMVRDQEQELVALHRIIQAQRGLALEMNEELQTQNELLTALEDDVDNTGRRLQIANKKARHFNNSA
chain 2: ESSYISIKVNEQSPLLHNEGQHQLQLQEEQEQQQQGLSQEELDFQTIIHQERSQQIGRIHTAVQEVNAIFHQLGSLVKEQGEQVTTIDENISHLHDNMQNANKQLTRADQHQRDRNKCGK
chain 3: MSSLLISYESDFKTTLEQAKASLAEAPSQPLSQRNTTLKHVEQQQDELFDLLDQMDVEVNNSIGDASERATYKAKLREWKKTIQSDIKRPLQSLVDSGDRDRLFGDLNASNIDDDQRQQLLSNHAILQKSGDRLKDASRIANETEGIGSQIMMDLRSQRETLENARQTLFQADSYVDKSIKTLKTMTRR
B2: GST-tagged Vam7 SNARE domain (190-316) (domain or fragment)
chain: B1 chain 1
B3: His-tagged Vam3ΔN (145-264, lacking the Habc domain and the TMD) (domain or fragment)
chain: B1 chain 2

Assays:
Assay in all cases: pull-down
[1] = biological target: HOPS (homotypic fusion and protein sorting) complex (yeast (S. cerevisiae), UniProt P38959;Q07468;P20795;P12868;Q03308;P27801)
Sequence of HOPS (homotypic fusion and protein sorting) complex (P38959 whole entry, chain 1 of 3, the tested form may be a part): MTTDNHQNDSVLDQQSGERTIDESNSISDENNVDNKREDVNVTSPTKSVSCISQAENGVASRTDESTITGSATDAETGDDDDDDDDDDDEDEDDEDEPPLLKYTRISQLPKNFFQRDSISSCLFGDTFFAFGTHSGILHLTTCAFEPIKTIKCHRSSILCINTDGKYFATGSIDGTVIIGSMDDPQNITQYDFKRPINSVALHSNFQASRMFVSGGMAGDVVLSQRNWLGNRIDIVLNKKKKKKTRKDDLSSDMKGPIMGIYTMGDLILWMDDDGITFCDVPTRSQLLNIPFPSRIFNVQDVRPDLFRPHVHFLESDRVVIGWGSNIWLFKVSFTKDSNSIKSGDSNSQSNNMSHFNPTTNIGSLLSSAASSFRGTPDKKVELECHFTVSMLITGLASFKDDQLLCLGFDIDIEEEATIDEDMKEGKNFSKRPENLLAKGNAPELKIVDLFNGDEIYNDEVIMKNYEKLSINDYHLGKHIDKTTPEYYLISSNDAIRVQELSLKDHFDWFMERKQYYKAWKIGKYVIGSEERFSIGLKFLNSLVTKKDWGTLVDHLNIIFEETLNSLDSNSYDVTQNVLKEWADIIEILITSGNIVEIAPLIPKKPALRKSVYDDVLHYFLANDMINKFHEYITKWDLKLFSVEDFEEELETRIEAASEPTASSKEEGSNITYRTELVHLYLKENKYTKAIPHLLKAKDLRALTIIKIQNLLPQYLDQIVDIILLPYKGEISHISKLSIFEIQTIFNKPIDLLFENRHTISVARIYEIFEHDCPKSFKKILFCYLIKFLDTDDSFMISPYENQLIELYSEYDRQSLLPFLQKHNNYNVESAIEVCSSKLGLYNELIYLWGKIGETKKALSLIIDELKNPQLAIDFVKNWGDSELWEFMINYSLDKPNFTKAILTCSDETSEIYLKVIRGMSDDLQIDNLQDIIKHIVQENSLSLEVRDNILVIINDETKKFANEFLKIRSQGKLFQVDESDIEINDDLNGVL
Sequence of HOPS (homotypic fusion and protein sorting) complex (Q07468 whole entry, chain 2 of 3, the tested form may be a part): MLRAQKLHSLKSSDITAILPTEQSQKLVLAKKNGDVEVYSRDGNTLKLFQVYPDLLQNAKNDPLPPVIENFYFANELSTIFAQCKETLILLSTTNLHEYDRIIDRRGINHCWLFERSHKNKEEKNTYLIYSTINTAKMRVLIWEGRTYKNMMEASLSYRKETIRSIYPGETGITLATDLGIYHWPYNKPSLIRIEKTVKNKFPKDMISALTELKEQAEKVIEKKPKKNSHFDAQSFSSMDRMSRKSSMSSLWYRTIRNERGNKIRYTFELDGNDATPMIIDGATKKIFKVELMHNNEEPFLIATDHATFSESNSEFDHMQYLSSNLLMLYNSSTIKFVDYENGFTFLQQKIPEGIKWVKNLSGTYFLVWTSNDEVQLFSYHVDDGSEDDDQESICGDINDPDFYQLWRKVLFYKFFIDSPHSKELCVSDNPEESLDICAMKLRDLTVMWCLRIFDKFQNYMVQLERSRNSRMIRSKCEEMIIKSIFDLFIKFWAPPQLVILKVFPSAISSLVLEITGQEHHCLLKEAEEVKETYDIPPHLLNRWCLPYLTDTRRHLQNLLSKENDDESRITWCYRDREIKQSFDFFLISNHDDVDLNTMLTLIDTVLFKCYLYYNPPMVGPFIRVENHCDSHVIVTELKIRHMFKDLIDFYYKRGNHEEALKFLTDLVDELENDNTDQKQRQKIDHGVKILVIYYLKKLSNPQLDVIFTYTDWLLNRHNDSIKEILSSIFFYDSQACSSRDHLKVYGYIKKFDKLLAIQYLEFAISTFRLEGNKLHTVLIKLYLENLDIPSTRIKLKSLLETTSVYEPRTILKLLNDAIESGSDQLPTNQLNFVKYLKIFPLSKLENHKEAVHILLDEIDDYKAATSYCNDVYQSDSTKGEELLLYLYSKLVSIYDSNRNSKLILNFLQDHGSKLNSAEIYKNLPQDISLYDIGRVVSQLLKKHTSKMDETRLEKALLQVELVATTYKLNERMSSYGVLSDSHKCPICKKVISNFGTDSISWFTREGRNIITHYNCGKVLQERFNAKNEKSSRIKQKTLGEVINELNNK
Sequence of HOPS (homotypic fusion and protein sorting) complex (P12868 whole entry, chain 4 of 3, the tested form may be a part): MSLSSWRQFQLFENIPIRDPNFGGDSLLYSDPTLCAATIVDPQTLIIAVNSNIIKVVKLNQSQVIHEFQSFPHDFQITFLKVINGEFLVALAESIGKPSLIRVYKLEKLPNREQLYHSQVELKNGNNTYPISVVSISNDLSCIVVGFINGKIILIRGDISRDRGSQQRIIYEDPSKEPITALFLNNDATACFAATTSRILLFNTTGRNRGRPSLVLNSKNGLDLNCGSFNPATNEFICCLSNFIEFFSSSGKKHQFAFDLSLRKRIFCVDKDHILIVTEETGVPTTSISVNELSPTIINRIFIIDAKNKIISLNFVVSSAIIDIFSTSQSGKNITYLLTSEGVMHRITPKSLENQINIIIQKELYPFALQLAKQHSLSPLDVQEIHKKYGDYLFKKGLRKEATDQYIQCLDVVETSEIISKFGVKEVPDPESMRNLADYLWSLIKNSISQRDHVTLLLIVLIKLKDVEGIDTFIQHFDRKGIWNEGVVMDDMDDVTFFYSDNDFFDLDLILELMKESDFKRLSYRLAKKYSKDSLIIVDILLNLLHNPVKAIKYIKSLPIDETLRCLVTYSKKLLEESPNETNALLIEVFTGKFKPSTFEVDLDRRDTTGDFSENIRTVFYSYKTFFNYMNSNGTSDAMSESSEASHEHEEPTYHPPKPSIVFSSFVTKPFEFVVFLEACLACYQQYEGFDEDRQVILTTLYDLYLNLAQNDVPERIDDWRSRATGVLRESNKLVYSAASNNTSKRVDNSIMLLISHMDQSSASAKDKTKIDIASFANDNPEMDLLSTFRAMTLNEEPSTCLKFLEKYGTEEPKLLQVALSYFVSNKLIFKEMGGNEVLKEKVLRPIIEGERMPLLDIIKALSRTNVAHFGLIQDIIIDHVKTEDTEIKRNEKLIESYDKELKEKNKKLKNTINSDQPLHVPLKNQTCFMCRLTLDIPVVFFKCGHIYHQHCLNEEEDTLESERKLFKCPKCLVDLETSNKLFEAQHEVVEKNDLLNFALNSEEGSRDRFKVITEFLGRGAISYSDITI

[2] = biological target: T1, Vps18 (individual HOPS subunit, …)
[3] = biological target: T2, Vps33 (individual HOPS subunit, …)
[4] = biological target: T3, Vps16 (individual HOPS subunit, …)
[5] = biological target: His-tagged Vti1 (1-189, ΔTMD) (S. cerevisiae, UniProt Q04338 1-189)
[6] = biological target: T4, His-tagged Vam3 (1-264, ΔTMD)
His-tagged Ykt6 (1-200) = biological target: T5, His-tagged Ykt6 (1-200)
[7] = biological target: B2

B1
binding result [1]: binds
binding result [2]: binds
binding result [3]: binds
binding result [4]: binds

B2
binding result [5]: binds
binding result [6]: binds
binding result (His-tagged Ykt6 (1-200)): binds

B3
binding result [7]: binds
